B1: 1-phosphatidylinositol 4,5-bisphosphate phosphodiesterase gamma-1 (Homo sapiens), P19174 (parent)
chain: MAGAASPCANGCGPGAPSDAEVLHLCRSLEVGTVMTLFYSKKSQRPERKTFQVKLETRQITWSRGADKIEGAIDIREIKEIRPGKTSRDFDRYQEDPAFRPDQSHCFVILYGMEFRLKTLSLQATSEDEVNMWIKGLTWLMEDTLQAPTPLQIERWLRKQFYSVDRNREDRISAKDLKNMLSQVNYRVPNMRFLRERLTDLEQRSGDITYGQFAQLYRSLMYSAQKTMDLPFLEASTLRAGERPELCRVSLPEFQQFLLDYQGELWAVDRLQVQEFMLSFLRDPLREIEEPYFFLDEFVTFLFSKENSVWNSQLDAVCPDTMNNPLSHYWISSSHNTYLTGDQFSSESSLEAYARCLRMGCRCIELDCWDGPDGMPVIYHGHTLTTKIKFSDVLHTIKEHAFVASEYPVILSIEDHCSIAQQRNMAQYFKKVLGDTLLTKPVEISADGLPSPNQLKRKILIKHKKLAEGSAYEEVPTSMMYSENDISNSIKNGILYLEDPVNHEWYPHYFVLTSSKIYYSEETSSDQGNEDEEEPKEVSSSTELHSNEKWFHGKLGAGRDGRHIAERLLTEYCIETGAPDGSFLVRESETFVGDYTLSFWRNGKVQHCRIHSRQDAGTPKFFLTDNLVFDSLYDLITHYQQVPLRCNEFEMRLSEPVPQTNAHESKEWYHASLTRAQAEHMLMRVPRDGAFLVRKRNEPNSYAISFRAEGKIKHCRVQQEGQTVMLGNSEFDSLVDLISYYEKHPLYRKMKLRYPINEEALEKIGTAEPDYGALYEGRNPGFYVEANPMPTFKCAVKALFDYKAQREDELTFIKSAIIQNVEKQEGGWWRGDYGGKKQLWFPSNYVEEMVNPVALEPEREHLDENSPLGDLLRGVLDVPACQIAIRPEGKNNRLFVFSISMASVAHWSLDVAADSQEELQDWVKKIREVAQTADARLTEGKIMERRKKIALELSELVVYCRPVPFDEEKIGTERACYRDMSSFPETKAEKYVNKAKGKKFLQYNRLQLSRIYPKGQRLDSSNYDPLPMWICGSQLVALNFQTPDKPMQMNQALFMTGRHCGYVLQPSTMRDEAFDPFDKSSLRGLEPCAISIEVLGARHLPKNGRGIVCPFVEIEVAGAEYDSTKQKTEFVVDNGLNPVWPAKPFHFQISNPEFAFLRFVVYEEDMFSDQNFLAQATFPVKGLKTGYRAVPLKNNYSEDLELASLLIKIDIFPAKENGDLSPFSGTSLRERGSDASGQLFHGRAREGSFESRYQQPFEDFRISQEHLADHFDSRERRAPRRTRVNGDNRL
B2: 1-phosphatidylinositol 4,5-bisphosphate phosphodiesterase gamma-1 (Homo sapiens), P19174 (parent)
chain: B1 chain
partner: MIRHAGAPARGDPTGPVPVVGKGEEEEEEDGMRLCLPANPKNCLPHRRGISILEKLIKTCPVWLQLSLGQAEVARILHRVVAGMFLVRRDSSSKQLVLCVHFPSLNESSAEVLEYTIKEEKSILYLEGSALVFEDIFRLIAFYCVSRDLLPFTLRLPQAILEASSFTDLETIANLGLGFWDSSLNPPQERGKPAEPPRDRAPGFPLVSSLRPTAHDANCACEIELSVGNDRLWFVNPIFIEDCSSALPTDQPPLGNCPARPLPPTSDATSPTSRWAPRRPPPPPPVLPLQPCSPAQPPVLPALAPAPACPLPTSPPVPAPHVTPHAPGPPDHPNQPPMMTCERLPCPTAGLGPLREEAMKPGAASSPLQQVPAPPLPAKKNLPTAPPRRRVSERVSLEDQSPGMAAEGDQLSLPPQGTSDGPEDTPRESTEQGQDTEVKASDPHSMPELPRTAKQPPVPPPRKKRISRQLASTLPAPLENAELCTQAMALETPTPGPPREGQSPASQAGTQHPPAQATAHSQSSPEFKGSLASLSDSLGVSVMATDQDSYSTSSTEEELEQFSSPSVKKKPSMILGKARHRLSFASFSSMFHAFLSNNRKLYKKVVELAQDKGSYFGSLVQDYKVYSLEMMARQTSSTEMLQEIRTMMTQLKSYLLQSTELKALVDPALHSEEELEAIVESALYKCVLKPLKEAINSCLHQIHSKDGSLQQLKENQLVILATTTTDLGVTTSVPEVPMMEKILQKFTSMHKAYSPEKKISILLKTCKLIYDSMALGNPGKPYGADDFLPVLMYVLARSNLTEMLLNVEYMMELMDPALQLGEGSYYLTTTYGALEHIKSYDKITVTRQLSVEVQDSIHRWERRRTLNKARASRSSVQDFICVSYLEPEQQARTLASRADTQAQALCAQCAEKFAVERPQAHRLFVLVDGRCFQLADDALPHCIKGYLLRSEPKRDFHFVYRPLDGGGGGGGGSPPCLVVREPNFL

Columns and labels:
[1] = variants of: B1; conditions: with asap2_human ASAP2, O43150
abl2_human ABL2, P42684 = variants of: B1; conditions: with abl2_human ABL2, P42684
[2] = variants of: B1; conditions: with shan2_human SHANK2, Q9UPX8
[3] = variants of: B1; conditions: with m4k1_human MAP4K1, Q92918
rin3_human RIN3, Q8TB24 = variants of: B2; conditions: with rin3_human RIN3, Q8TB24

asap2_human ASAP2, O43150, sequence (O43150 whole entry): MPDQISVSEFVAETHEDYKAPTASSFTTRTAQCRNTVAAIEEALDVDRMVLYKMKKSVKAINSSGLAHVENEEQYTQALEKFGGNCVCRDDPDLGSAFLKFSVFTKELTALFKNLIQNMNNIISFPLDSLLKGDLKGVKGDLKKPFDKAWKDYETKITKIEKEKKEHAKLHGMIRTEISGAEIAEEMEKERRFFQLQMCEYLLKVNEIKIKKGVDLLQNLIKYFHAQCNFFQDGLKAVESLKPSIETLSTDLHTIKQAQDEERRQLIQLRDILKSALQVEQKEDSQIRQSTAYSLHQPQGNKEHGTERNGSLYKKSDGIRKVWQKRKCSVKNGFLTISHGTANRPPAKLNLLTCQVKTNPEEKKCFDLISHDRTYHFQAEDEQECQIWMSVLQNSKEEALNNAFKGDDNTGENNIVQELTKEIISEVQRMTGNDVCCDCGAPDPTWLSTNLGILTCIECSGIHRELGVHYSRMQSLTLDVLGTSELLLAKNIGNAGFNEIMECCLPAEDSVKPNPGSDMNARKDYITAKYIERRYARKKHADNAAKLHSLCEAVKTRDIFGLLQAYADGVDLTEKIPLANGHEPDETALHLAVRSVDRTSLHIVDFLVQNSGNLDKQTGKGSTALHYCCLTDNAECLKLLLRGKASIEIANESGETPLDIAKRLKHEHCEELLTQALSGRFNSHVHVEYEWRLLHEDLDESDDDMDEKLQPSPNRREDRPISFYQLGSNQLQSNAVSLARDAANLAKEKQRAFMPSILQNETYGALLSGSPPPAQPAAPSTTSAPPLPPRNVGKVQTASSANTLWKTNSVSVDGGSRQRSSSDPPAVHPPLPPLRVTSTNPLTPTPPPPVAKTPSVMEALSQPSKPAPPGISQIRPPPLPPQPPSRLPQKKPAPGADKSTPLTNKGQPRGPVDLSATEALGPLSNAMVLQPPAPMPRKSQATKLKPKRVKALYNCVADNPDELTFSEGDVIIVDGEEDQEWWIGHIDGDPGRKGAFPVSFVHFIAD
abl2_human ABL2, P42684, sequence (P42684 whole entry): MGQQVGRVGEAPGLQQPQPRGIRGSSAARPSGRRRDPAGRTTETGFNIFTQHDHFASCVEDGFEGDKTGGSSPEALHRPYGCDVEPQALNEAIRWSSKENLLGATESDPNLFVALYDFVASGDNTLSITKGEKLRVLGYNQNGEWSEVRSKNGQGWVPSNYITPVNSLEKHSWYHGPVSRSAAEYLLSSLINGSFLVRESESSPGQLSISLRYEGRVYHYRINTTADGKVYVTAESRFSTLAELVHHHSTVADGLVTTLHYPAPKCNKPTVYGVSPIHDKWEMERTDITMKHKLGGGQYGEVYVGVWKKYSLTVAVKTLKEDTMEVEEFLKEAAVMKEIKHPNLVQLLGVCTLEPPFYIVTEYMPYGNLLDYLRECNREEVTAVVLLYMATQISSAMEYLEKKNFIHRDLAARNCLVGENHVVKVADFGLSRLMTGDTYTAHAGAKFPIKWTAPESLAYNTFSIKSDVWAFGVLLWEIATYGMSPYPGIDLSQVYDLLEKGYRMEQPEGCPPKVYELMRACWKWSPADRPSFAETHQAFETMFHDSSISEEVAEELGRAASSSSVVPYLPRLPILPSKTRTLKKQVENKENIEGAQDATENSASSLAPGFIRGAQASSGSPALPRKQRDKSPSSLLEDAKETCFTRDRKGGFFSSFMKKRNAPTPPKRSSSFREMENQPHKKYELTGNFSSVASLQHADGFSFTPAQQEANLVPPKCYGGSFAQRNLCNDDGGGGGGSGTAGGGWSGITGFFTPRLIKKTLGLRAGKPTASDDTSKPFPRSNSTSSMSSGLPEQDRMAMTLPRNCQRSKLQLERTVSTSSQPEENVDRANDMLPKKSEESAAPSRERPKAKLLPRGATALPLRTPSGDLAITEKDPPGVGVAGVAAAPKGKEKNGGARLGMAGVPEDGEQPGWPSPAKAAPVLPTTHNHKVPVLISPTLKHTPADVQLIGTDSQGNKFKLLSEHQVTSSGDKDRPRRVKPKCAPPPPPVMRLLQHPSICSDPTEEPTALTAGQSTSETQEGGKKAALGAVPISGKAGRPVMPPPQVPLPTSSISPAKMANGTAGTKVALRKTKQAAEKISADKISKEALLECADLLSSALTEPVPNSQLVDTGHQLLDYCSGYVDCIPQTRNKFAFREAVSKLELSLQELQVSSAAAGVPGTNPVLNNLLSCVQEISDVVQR
m4k1_human MAP4K1, Q92918, sequence (Q92918 whole entry, looked up): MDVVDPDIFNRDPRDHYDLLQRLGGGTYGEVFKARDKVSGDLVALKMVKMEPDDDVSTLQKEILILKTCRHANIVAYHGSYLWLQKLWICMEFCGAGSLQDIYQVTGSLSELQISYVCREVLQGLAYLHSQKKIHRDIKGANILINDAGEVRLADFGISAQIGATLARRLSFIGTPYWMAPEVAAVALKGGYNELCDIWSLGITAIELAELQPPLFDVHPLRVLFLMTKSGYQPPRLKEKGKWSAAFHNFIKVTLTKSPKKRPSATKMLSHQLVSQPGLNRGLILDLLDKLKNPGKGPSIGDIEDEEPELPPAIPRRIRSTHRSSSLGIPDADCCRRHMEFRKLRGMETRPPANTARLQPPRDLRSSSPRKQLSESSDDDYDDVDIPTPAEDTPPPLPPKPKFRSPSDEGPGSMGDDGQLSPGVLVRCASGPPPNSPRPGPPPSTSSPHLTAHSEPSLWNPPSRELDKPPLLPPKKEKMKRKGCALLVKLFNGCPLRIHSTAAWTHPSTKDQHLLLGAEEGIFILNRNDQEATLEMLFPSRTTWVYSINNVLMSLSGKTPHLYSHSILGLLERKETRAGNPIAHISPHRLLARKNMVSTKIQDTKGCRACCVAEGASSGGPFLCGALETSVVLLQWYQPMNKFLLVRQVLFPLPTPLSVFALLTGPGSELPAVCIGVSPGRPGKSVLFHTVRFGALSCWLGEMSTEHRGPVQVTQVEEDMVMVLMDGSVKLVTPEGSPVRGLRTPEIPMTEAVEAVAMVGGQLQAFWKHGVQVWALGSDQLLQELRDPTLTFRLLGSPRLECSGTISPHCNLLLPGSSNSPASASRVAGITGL
shan2_human SHANK2, Q9UPX8, sequence (Q9UPX8 whole entry): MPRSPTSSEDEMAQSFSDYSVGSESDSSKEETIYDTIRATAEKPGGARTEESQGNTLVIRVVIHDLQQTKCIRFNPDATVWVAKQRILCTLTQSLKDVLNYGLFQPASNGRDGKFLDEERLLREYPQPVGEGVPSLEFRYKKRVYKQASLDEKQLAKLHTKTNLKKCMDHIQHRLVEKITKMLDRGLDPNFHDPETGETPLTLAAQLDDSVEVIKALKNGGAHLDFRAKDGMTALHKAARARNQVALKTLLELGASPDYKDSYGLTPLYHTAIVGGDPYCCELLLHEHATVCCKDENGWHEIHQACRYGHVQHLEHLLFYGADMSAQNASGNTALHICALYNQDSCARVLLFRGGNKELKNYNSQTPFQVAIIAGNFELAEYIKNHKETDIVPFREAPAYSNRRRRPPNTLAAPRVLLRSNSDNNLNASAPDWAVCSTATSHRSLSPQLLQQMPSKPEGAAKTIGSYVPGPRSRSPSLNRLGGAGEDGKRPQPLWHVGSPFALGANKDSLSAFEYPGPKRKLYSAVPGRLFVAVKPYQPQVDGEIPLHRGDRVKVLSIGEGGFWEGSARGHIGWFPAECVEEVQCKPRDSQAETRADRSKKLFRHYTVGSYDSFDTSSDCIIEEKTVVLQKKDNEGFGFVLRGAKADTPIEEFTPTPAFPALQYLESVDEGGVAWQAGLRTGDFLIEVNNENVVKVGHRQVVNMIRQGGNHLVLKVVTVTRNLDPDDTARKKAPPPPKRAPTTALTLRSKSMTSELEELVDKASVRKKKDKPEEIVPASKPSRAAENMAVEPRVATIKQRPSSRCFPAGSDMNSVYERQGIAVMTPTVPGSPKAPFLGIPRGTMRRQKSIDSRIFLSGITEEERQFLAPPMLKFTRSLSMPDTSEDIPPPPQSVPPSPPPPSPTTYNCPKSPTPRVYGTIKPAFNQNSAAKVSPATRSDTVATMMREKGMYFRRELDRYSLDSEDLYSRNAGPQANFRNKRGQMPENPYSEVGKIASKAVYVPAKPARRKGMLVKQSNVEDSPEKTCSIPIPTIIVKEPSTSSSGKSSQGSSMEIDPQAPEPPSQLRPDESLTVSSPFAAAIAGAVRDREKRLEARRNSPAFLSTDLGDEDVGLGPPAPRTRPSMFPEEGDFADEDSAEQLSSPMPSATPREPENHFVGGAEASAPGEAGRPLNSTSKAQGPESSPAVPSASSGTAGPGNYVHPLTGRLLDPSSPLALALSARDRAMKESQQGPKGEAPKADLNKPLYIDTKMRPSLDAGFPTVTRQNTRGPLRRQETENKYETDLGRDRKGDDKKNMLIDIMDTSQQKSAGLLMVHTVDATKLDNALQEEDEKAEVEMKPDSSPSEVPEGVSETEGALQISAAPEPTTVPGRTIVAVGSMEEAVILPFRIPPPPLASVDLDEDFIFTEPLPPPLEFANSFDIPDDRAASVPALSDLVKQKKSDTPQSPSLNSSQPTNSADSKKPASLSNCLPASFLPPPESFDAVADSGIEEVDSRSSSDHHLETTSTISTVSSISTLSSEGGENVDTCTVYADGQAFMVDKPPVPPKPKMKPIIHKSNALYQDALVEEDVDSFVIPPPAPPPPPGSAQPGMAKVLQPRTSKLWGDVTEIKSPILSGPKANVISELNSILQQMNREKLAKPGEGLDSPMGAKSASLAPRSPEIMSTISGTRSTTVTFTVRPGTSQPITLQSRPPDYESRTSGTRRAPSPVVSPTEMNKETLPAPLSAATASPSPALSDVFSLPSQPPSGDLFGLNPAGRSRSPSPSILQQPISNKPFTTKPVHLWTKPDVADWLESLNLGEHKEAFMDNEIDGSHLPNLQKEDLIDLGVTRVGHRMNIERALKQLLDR

## W828A
[1]
  effect of a mutation on the interaction: disrupting interaction
abl2_human ABL2, P42684
  effect of a mutation on the interaction: disrupting interaction
[2]
  effect of a mutation on the interaction: disrupting interaction
[3]
  effect of a mutation on the interaction: disrupting interaction

## W828A
rin3_human RIN3, Q8TB24
  effect of a mutation on the interaction: disrupting interaction
